In PMC8726733 (mAbs, 2021):

Assays:
[1] = target: biotinylated avitag-labeled canine CTLA4 (dog, UniProt Q9XSI1, biotin (biotinylated avitag)); assay: ELISA
[2] = target: feline CTLA4 of feline CD5+ leucocytes (Felis catus, endogenous; allele not …, UniProt Q9XSY7); assay: flow cytometry on cells

Chain of biotinylated avitag-labeled canine CTLA4 (Q9XSI1 36-161): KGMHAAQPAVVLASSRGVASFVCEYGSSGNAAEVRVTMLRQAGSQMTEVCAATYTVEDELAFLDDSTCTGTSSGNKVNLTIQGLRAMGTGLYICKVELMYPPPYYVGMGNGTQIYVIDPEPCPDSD

Row | Binder | binding result [1] | binding result [2]
1 | A1 soluble canine anti-cCTLA4 scFv (scFv, V domains shown) VH: EVQLVESGGDLVKPAGSLRLSCVASGFSFSSYAMNWVRQAPGKGLQWIAGINSGGSSTSHIDAIKGRFTISRDNAKNTLYLQMNSLRAEDTAVYYCAISNWAYWGQGTLVTVSS VL: QAVLNQPASVSGSLGQRVTISCTGSSSDIGKSYVAWYQQLPGTGPRTLINVDGNRASGVPDRFSVSRSGNTATLTISGLQAEDEADYHCSSWDWSLHTYVFGSGTQLTIL | binds | 
2 | A1mut2 fully canine IgGA (antibody, V domains shown) VH: EVQLVETGGDLVKPGGSLRLSCVASGFSFSSYAMNWVRQAPEKGLQLVGGINSGGSSTYYTDAVKGRFTISRDNAKNTVYLQMNSLRAEDTAVYYCAISNWAYWGQGTLVTVSS VL: QAVLNQPASVSGSLGQRVTISCTGSSSDIGKSYVAWYQQLPGTGPRTLINVDGNRASGVPDRFSVSRSGNTATLTISGLQAEDEADYHCSSWDWSLHTYVFGSGTQLTIL |  | binds
